Data from patent US20160244499A1 (Stanford University, published 2016).

Biological target: T1, γc on human cell lines (Ramos, HH, U937) (human, UniProt P31785 23-369)
T1 sequence (looked up): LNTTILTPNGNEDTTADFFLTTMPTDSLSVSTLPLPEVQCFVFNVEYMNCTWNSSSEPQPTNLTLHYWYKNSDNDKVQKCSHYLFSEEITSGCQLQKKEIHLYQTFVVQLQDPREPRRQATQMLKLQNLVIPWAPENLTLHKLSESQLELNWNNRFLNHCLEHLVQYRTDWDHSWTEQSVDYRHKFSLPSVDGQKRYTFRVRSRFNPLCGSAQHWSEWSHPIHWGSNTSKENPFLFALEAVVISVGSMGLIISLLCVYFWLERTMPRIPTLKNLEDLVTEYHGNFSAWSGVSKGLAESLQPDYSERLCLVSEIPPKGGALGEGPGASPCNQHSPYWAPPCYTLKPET
Assay: cell-based or functional assay

STAT6 phosphorylation in Ramos cells, potency against IL-4: ~3 fold | STAT6 phosphorylation in Ramos cells, potency against KFR: ~10 fold
B1: super-4 (IL-4 RGA), free, not bound to IL-4Rα (ligand)
chain: HKCDITLQEIIKTLNSLTEQKTLCTELTVTDIFAASKNTTEKETFCRAATVLRQFYSHHEKDTRCLGATAQQFHRHKQLIRFLKRLDRNLWGLAGLNSCPVKEANQSTLENFLERLRVIMQSKWFKCGAHHHHHH
